In this data set the target is LRRK2 wild-type (UniProt Q5S007 1-2527). Description: EMSA.
Sequence of LRRK2 wild-type (Q5S007 whole entry): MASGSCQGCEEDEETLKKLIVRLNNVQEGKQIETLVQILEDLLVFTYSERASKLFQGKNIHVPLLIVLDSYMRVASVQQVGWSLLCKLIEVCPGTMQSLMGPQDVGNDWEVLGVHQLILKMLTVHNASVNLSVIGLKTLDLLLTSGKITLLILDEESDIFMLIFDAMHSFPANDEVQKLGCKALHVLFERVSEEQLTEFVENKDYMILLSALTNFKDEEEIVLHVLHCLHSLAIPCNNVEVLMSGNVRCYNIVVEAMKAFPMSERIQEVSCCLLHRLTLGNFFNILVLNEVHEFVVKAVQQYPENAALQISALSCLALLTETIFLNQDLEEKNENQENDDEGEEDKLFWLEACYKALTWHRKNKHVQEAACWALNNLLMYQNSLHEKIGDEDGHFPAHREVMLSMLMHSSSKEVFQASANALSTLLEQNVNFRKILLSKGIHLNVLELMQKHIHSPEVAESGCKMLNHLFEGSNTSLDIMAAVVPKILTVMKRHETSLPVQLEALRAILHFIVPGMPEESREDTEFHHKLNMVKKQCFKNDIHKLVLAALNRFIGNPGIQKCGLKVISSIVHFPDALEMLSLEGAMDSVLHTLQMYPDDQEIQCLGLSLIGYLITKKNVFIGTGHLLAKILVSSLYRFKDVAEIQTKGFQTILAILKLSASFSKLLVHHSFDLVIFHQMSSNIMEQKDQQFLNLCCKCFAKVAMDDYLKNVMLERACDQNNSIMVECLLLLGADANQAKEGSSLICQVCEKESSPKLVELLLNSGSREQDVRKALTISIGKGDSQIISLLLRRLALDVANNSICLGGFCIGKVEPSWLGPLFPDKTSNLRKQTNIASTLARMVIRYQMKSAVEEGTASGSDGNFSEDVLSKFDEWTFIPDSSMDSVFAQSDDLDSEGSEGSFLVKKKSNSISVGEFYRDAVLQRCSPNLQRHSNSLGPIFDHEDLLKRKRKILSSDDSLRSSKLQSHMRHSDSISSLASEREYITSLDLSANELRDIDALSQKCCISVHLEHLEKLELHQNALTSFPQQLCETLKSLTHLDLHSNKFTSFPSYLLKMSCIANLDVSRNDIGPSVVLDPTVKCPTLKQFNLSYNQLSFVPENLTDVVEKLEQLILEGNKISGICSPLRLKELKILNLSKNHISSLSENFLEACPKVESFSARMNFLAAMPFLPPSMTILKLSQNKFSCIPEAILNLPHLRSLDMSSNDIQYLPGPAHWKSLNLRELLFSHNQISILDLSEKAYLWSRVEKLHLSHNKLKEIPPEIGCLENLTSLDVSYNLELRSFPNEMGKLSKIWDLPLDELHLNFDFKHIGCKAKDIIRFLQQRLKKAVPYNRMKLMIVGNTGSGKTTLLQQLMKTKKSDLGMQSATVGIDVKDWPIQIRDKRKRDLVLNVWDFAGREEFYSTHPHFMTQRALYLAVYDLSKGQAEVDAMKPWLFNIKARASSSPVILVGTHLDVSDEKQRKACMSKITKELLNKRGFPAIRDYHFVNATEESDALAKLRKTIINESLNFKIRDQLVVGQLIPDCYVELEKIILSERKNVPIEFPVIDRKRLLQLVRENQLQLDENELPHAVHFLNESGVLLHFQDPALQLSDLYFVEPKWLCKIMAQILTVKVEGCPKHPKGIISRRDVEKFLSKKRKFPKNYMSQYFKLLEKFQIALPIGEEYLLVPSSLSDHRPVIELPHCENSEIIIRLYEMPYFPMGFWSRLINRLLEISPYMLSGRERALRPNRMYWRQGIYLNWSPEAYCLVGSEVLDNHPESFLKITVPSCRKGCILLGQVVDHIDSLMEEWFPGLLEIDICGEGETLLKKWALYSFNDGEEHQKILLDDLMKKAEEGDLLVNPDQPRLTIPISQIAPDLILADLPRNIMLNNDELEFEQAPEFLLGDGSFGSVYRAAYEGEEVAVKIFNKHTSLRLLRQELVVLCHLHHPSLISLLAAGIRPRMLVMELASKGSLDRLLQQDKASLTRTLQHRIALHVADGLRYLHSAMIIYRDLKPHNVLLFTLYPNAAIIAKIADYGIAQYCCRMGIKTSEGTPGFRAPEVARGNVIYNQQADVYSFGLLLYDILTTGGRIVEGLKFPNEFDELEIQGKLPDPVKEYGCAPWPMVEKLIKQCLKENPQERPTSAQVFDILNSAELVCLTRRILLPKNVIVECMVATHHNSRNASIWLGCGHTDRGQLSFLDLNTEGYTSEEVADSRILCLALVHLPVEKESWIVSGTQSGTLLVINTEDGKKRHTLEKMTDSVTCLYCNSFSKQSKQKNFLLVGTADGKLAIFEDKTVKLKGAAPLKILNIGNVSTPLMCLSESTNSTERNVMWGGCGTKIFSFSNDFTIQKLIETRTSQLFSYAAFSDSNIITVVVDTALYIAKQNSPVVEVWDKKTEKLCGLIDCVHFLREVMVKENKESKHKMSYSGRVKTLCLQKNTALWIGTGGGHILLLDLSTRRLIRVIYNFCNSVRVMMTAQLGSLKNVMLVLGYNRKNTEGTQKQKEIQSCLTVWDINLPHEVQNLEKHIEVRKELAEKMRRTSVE

On to AGAAAAAAUAUUUAUUGUAUUUUAGUAUAUUUAUAUAA (ssRNA) [BDNF 3'UTR neuronal ELAV binding segment (U-rich)], for which the binding result was “no binding”.

With GGAAACAGUCAUUUGCGCACAACUUUAAAAGUCUGCAU (ssRNA) [BDNF 3'UTR control segment without neuronal ELAV sites], the binding result was “no binding”.

Source of the values: paper doi:10.1101/2022.04.24.489327.
